From PMC9938795 come the findings set out here.

The test deals with PRKAR2A, regulatory subunit of protein kinase A (NanoBiT positive control) (UniProt P13861). Nature of the test: split reporter.
Chain of PRKAR2A, regulatory subunit of protein kinase A (NanoBiT positive control) (P13861 whole entry): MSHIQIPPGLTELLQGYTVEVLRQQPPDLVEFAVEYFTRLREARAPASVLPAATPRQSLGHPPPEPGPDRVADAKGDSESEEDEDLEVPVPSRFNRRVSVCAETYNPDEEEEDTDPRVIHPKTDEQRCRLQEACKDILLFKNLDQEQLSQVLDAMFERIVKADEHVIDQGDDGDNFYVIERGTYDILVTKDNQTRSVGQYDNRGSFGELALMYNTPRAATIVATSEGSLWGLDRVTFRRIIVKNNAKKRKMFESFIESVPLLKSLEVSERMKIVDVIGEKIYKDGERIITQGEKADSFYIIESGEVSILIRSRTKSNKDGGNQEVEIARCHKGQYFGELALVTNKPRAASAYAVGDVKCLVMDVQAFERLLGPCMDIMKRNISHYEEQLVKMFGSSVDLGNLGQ

On to “PRKACA, catalytic subunit of protein kinase A (NanoBiT positive control) (from UniProt P17612 1-351) (natural protein)”, for which the nanoluciferase activity (RLU) is 800000 RLU.
